Measurements reported in patent US20240181007A1, “COMPOSITIONS AND METHODS FOR TREATING PULMONARY HYPERTENSION” (Acceleron Pharma Inc., priority 2021, published 2024).
One block for each molecule: values may come before it.

Tests used:
[1] = Muscle-building activity in vivo; conditions: material from CHO, HEK293 and COS cells; variability in potency was observed
GDF8 = target: T1, GDF8 (UniProt O14793 267-375); experiment: SPR (Biacore), fusion protein captured by anti-Fc antibody, ligand injected, 37 C
T1 construct: also called Growth and differentiation factor-8; myostatin
T1 sequence (looked up): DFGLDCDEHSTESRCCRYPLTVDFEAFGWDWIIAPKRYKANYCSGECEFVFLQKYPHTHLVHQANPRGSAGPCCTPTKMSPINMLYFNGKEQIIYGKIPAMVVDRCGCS
Procedure: (§1) A Biacore™-based binding assay was used to compare the ligand binding kinetics of an ActRIIB-Fc:ActRIIB(L79E)-Fc heterodimer with those of unmodified ActRIIB-Fc homodimer. Fusion proteins were captured onto the system using an anti-Fc antibody. Ligands were then injected and allowed to flow over the captured receptor protein at 37° C. Results are summarized in the table below, in which ligand off-rates (kd) most indicative of effective ligand traps are denoted in bold.

GDF3 = target: T2, GDF3 (UniProt Q9NR23 251-364); experiment: as above
T2 sequence (looked up): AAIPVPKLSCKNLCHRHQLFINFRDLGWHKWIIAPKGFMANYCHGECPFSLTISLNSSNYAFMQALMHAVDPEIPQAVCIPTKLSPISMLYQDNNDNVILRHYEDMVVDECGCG
Procedure: as §1

activin A [2] = target: T3, activin A (UniProt P08476 311-426); experiment: as above
T3 construct: Soluble ligand injected in SPR or added in the reporter assay
T3 sequence (looked up): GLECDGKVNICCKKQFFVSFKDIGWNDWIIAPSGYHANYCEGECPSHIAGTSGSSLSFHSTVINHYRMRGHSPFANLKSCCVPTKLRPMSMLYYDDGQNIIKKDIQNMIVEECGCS
Procedure: as §1

BMP6 = target: T4, BMP6 (UniProt P22004 382-513, limits assumed); experiment: as above
T4 sequence (looked up): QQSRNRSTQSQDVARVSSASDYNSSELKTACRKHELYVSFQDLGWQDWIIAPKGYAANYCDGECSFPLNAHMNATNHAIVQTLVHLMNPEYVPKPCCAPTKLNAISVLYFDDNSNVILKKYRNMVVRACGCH
Procedure: as §1

GDF11 = target: T5, GDF11 (UniProt O95390 299-407); experiment: as above
T5 construct: also called Growth and differentiation factor-11; BMP11
T5 sequence (looked up): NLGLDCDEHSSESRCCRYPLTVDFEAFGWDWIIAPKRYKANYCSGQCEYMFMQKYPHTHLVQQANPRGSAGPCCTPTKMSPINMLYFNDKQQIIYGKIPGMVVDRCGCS
Procedure: as §1

BMP10 [3] = target: T6, BMP10 (UniProt O95393 317-424); experiment: as above
T6 sequence (looked up): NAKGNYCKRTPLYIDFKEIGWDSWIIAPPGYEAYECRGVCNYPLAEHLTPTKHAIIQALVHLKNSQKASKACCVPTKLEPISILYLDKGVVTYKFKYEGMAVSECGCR
Procedure: as §1

BMP9 = target: T7, BMP9 (UniProt Q9UK05 320-429); experiment: as above
T7 sequence (looked up): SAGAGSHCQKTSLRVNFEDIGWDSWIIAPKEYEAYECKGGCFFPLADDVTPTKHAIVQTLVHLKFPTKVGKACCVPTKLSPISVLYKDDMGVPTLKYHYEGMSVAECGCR
Procedure: as §1

activin B = target: T8, activin B (UniProt P09529 293-407); experiment: as above
T8 sequence (looked up): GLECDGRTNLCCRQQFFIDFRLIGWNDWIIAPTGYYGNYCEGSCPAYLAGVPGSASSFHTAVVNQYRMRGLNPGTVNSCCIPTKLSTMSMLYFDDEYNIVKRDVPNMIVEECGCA
Procedure: as §1

activin A [4] = target: T3, activin A; experiment: SPR (Biacore), 37 C
Procedure: as §1

BMP10 [5] = target: T6, BMP10; experiment: SPR (Biacore), 37 C
Procedure: as §1

Molecule: ActRIIB-G1Fc: extracellular domain of human ActRIIB fused to a human G1Fc domain with a three-glycine linker; SEQ ID NO: 5
muscle-building activity in vivo [1]: muscle-building activity in vivo

Kd (GDF8): 0.15 nM | koff (GDF8): 0.0005 s⁻¹ | kon (GDF8): 3.4e+06 M⁻¹ s⁻¹ | Kd (GDF3): 10 nM | koff (GDF3): 0.0059 s⁻¹ | kon (GDF3): 580000 M⁻¹ s⁻¹ | Kd (activin A [2]): 0.17 nM | koff (activin A [2]): 0.0015 s⁻¹ | kon (activin A [2]): 8.8e+06 M⁻¹ s⁻¹ | Kd (BMP6): 0.056 nM | koff (BMP6): 0.018 s⁻¹ | kon (BMP6): 3.3e+08 M⁻¹ s⁻¹ | Kd (GDF11): 0.009 nM | koff (GDF11): 0.00036 s⁻¹ | kon (GDF11): 4e+07 M⁻¹ s⁻¹ | Kd (BMP10 [3]): 0.042 nM | koff (BMP10 [3]): 0.002 s⁻¹ | kon (BMP10 [3]): 4.8e+07 M⁻¹ s⁻¹ | Kd (BMP9): > 2.8 nM | Kd (activin B): 0.025 nM | koff (activin B): 0.00021 s⁻¹ | kon (activin B): 8.3e+06 M⁻¹ s⁻¹ | fold faster off-rate compared to ActRIIB-Fc homodimer (activin A [4]): ~10 fold | fold faster off-rate compared to ActRIIB-Fc homodimer (BMP10 [5]): ~10 fold
B1: ActRIIB-Fc:ActRIIB(L79E)-Fc heterodimer (Fc fusion)
chain 1: GRGEAETRECIYYNANWELERTNQSGLERCEGEQDKRLHCYASWRNSSGTIELVKKGCWEDDFNCYDRQECVATEENPQVYFCCCEGNFCNERFTHLPEAGGPEVTYEPPPTAPTGGGTHTCPPCPAPELLGGPSVFLFPPKPKDTLMISRTPEVTCVVVDVSHEDPEVKFNWYVDGVEVHNAKTKPREEQYNSTYRVVSVLTVLHQDWLNGKEYKCKVSNKALPAPIEKTISKAKGQPREPQVYTLPPSREEMTKNQVSLTCLVKGFYPSDIAVEWESNGQPENNYDTTPPVLDSDGSFFLYSDLTVDKSRWQQGNVFSCSVMHEALHNHYTQKSLSLSPG
chain 2: GRGEAETRECIYYNANWELERTNQSGLERCEGEQDKRLHCYASWRNSSGTIELVKKGCWLDDFNCYDRQECVATEENPQVYFCCCEGNFCNERFTHLPEAGGPEVTYEPPPTAPTGGGTHTCPPCPAPELLGGPSVFLFPPKPKDTLMISRTPEVTCVVVDVSHEDPEVKFNWYVDGVEVHNAKTKPREEQYNSTYRVVSVLTVLHQDWLNGKEYKCKVSNKALPAPIEKTISKAKGQPREPQVYTLPPSRKEMTKNQVSLTCLVKGFYPSDIAVEWESNGQPENNYKTTPPVLKSDGSFFLYSKLTVDKSRWQQGNVFSCSVMHEALHNHYTQKSLSLSPGK
notes: The ActRIIB extracellular domains and linkers are the same in both pairs; also called ActRIIB-Fc:ActRIIB(L79E)-Fc heteromer
